# From patent US20250152705A1, “COMBINATION THERAPY COMPRISING AN ANTI-IL-23 ANTIBODY AND A CORTICOSTEROID FOR TREATING PSORIASIS” (priority 2022, published 2025)
# B1: tildrakizumab (antibody, chains of the INN, looked up, V domains shown)
# VH: QVQLVQSGAEVKKPGASVKVSCKASGYIFITYWMTWVRQAPGQGLEWMGQIFPASGSADYNEKFEGRVTMTTDTSTSTAYMELRSLRSDDTAVYYCARGGGGFAYWGQGTLVTVSS
# VL: DIQMTQSPSSLSASVGDRVTITCRTSENIYSYLAWYQQKPGKAPKLLIYNAKTLAEGVPSRFSGSGSGTDFTLTISSLQPEDFATYYCQHHYGIPFTFGQGTKVEIK
# How the values were obtained:
# [1] = test system: patients with moderate to severe plaque psoriasis; test: Safety outcomes (AEs, SAEs) in the open-label study; type: in vivo, human; settings: through week 24
# Method: This was a single center, prospective, open-label study to evaluate the effectiveness and safety of tildrakizumab (ILUMYA® [tildrakizumab-asmn] in combination with halcinonide ointment (HALOG® ointment [Halcinonide Ointment, USP, 0.1%) for treating moderate to severe plaque psoriasis. The study protocol was approved by an institutional review board and the study was conducted in accordance with ethical guidelines. Written informed consent was obtained by all patients before initiating treatment.
# All enrolled patients received tildrakizumab (100 mg) by subcutaneous injection at weeks 0, 4, and 16. Patients with BSA>3% at week 16 applied halcinonide ointment twice daily for 4 weeks and then continued without halcinonide for an additional 4 weeks of follow up. Patients with BSA≤3% at week 16 were also followed up to week 24. All patients were evaluated for safety and efficacy at weeks 4, 8, 16, 20 and 24.
# The primary endpoint of the study was the proportion of patients with BSA≤3% at week 16. […] Improvements in PGA, the composite PGA×BSA measure, and DLQI were also evaluated as secondary endpoints. […]
# A cohort of approximately 25 participants was planned for enrollment in the study. […] AEs and SAEs were summarized descriptively by frequency and severity, and their causal relationship to treatment was assessed.
# [2] = test system: moderate to severe plaque psoriasis; test: Prospective, open-label study of effectiveness of tildrakizumab plus topical halcinonide ointment; type: in vivo, human; settings: for improvement of mean DLQI from baseline: patients with BSA≤3% at week 16, no halcinonide ointment
# [3] = patients with BSA>3% at week 16, week 16
# [4] = patients with BSA≤3% at week 16, no halcinonide, week 16
molecule,measurement,setting,value
B1,serious adverse events (SAEs),[1],no SAEs
same,tolerability,[1],well tolerated
same,decrease of mean DLQI from baseline,"[2]; all patients, week 16",68%
same,proportion of patients achieving PASI 75,"[2]; all patients, week 16",60.9%
same,proportion of patients achieving PASI 90,"[2]; all patients, week 16",17.4%
same,proportion of patients achieving PASI 100 (complete resolution),"[2]; all patients, week 16",4.3%
same,proportion of patients with BSA≤1%,"[2]; all patients, week 16",21.7%
same,reduction in mean BSA involvement from baseline,"[2]; all patients, week 16",74%
same,proportion of patients reporting a DLQI score of 0 or 1,"[2]; all patients, week 16 (baseline 4.0%)",39.2%
same,mean BSA involvement,"[2]; all patients, week 16 (baseline 19.1%)",5.0%
same,proportion of patients with BSA≤3%,"[2]; all patients, week 16, tildrakizumab 100 mg sc at weeks 0, 4, 16",52.2%
same,BSA≤3% response at weeks 20 and 24,[2]; most patients with BSA≤3% at week 16 (no halcinonide use) who completed the study,maintained a BSA≤3%
same,reduction from baseline in mean BSA,[2]; [3],55%
same,reduction from baseline in mean PGA,[2]; [3],29%
same,reduction from baseline in mean PGA×BSA,[2]; [3],64%
same,reduction in mean DLQI from baseline,[2]; [3],50%
same,improvement of mean DLQI from baseline,[2]; week 16,84%
same,improvement of mean DLQI from baseline,[2]; weeks 20 and 24,remained at similar levels
same,"BSA, PGA and PGA×BSA responses","[2]; patients with BSA≤3% at week 16, no halcinonide, through week 24",maintained
same,reduction of mean BSA from baseline,[2]; [4],89%
same,reduction of mean PGA from baseline,[2]; [4],60%
same,reduction of mean PGA×BSA from baseline,[2]; [4],95%
same,number of patients with BSA>3%,[2]; week 16,11 patients
same,number of patients with BSA≤3%,[2]; week 16,12 patients
